Experimental data published in the supplement of paper PMC6757056.
± gives the standard deviation of the averaged measurements.

B1: library; a variant is named by its letters at N, in order (parent)
chain: GCUGUCACCGGUGUAUUACCCUAGUGGUCGACCGGUCUGAUGAGUCUNNNNNNAGACGAAACAGC

What was measured:
[1] = variants of: B1; experiment: normalized RNA/DNA level with ligand (relative to sTRSVctl = 100) (log10 (% of sTRSVctl)); ligand: hypoxanthine (xanthine aptamer); higher = less ribozyme self-cleavage, higher mRNA level; conditions: ligand concentration (+) RNA-Seq: 5 mM, HEK293T, reporter: mCherry (pCS4076), ligand present: yes
Procedure, shortened: (§1)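 Total RNA, extracted with EDTA 72 h after HEK293T cells were transfected with 4 µg per 6-well well of reporter-linked ribozyme switch library plasmids, was reverse-transcribed, amplified, barcoded and sequenced. Ligand, if used, was added 1 h before transfection. RNA level was derived from RNA reads divided by DNA reads and normalized to a spiked-in non-cleaving sequence or to the top sequences. This was multiplied by 100 and log10-transformed, with the top set of 25 sequences and a ≥100 DNA read minimum.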

[2] = variants of: B1; experiment: normalized RNA/DNA level without ligand (relative to sTRSVctl = 100) (log10 (% of sTRSVctl)); ligand: hypoxanthine (xanthine aptamer); higher = less ribozyme self-cleavage, higher mRNA level; conditions: HEK293T, reporter: mCherry (pCS4076), ligand present: no
Procedure, shortened: as §1

| Variant | normalized RNA/DNA level with ligand (log10) [1] | normalized RNA/DNA level without ligand (log10) [2] |
| --- | --- | --- |
| ACCCUA | 1.937 ± 0.014 | 1.85 ± 0.047 |
| ACCCUC | 1.936 ± 0.0052 | 1.895 ± 0.00022 |
| GCGAUA | 1.88 ± 0.083 | 1.594 ± 0.0079 |
| ACCGCU | 1.925 ± 0.0096 | 1.89 ± 0.041 |
| ACCGCA | 1.93 ± 0.082 | 1.845 ± 0.017 |
| GCCUCA | 1.98 ± 0.07 | 1.9 ± 0.024 |
| GCCUCC | 1.95 ± 0.043 | 1.95 ± 0.023 |
| GCCUCU | 2.011 ± 0.019 | 1.96 ± 0.02 |
| CCGCGU | 1.97 ± 0.023 | 1.71 ± 0.064 |
| CCGCGC | 1.963 ± 0.0058 | 1.7 ± 0.06 |
| CCGCGA | 1.88 ± 0.018 | 1.62 ± 0.016 |
| GCGGUU | 1.919 ± 0.018 | 1.72 ± 0.056 |
| CCGACA | 1.978 ± 0.01 | 1.79 ± 0.025 |
| ACCCCU | 1.967 ± 0.0051 | 1.892 ± 0.0077 |
| ACCCCC | 1.99 ± 0.16 | 1.879 ± 0.013 |
| ACCCCA | 1.96 ± 0.031 | 1.86 ± 0.062 |
| ACCCCG | 1.86 ± 0.032 | 1.45 ± 0.063 |
| ACCUUA | 1.94 ± 0.068 | 1.86 ± 0.03 |
| ACCUUU | 1.97 ± 0.034 | 1.89 ± 0.0069 |
| ACCUUC | 1.958 ± 0.018 | 1.96 ± 0.03 |
| UCCUCU | 1.99 ± 0.053 | 1.98 ± 0.029 |
| UCCUCA | 2 ± 0.033 | 1.88 ± 0.048 |
| UCCUCG | 1.97 ± 0.065 | 1.68 ± 0.058 |
| UCCUCC | 1.99 ± 0.055 | 1.78 ± 0.039 |

| Variant | normalized RNA/DNA level with ligand (log10) [1] | normalized RNA/DNA level without ligand (log10) [2] |
| --- | --- | --- |
| ACCGGC | 2.001 ± 0.012 | 1.96 ± 0.073 |
| ACCGGA | 1.94 ± 0.039 | 1.903 ± 0.014 |
| ACCGGU | 1.99 ± 0.076 | 1.844 ± 0.0038 |
| CCCUGG | 1.91 ± 0.028 | 1.8 ± 0.05 |
| CCCUGU | 1.94 ± 0.078 | 1.94 ± 0.053 |
| CCCUGC | 2.04 ± 0.059 | 1.901 ± 0.0066 |
| ACGCGA | 1.77 ± 0.072 | 1.29 ± 0.05 |
| ACGCGU | 1.95 ± 0.021 | 1.57 ± 0.096 |
| UCCCUU | 1.92 ± 0.051 | 1.781 ± 0.017 |
| UCCCUC | 1.98 ± 0.03 | 1.66 ± 0.14 |
| UCCCUA | 1.92 ± 0.033 | 1.79 ± 0.043 |
| GCCCUC | 1.97 ± 0.035 | 1.88 ± 0.058 |
| GCCCUA | 1.97 ± 0.052 | 1.8733 ± 0.00068 |
| UCGAAC | 1.929 ± 0.011 | 1.734 ± 0.012 |
| UCGAAU | 1.87 ± 0.043 | 1.476 ± 0.0078 |
| UCCUAU | 1.957 ± 0.0089 | 1.851 ± 0.0031 |
| UCCUAG | 1.91 ± 0.066 | 1.65 ± 0.038 |
| UCCUAA | 1.956 ± 0.019 | 1.807 ± 0.017 |
| CCCGCG | 1.9 ± 0.029 | 1.84 ± 0.019 |
| CCCGCU | 1.94 ± 0.056 | 1.99 ± 0.03 |
| CCCUAC | 1.973 ± 0.018 | 1.9 ± 0.11 |
| CCCUAG | 1.89 ± 0.025 | 1.77 ± 0.12 |
| CCCUAU | 1.971 ± 0.0087 | 1.94 ± 0.025 |
| GCCGCU | 1.98 ± 0.05 | 1.95 ± 0.046 |

| Variant | normalized RNA/DNA level with ligand (log10) [1] | normalized RNA/DNA level without ligand (log10) [2] |
| --- | --- | --- |
| GCCGCC | 1.99 ± 0.068 | 1.81 ± 0.1 |
| CCGAGC | 1.899 ± 0.0048 | 1.44 ± 0.037 |
| CCGAGU | 1.89 ± 0.03 | 1.57 ± 0.029 |
| CCCCGG | 1.985 ± 0.0052 | 1.97 ± 0.035 |
| CCCCGA | 1.95 ± 0.059 | 1.81 ± 0.025 |
| CCCCGU | 1.94 ± 0.022 | 1.92 ± 0.055 |
| CCCCGC | 1.986 ± 0.019 | 1.9 ± 0.047 |
| UCGCCA | 2.016 ± 0.0013 | 1.81 ± 0.034 |
| UCGCCG | 2 ± 0.035 | 1.841 ± 0.008 |
| UCGCCC | 1.981 ± 0.01 | 1.99 ± 0.069 |
| CCCUCC | 1.95 ± 0.065 | 2 ± 0.08 |
| CCCUCA | 1.978 ± 0.0074 | 1.9723 ± 0.00098 |
| CCCUCG | 1.93 ± 0.087 | 1.8103 ± 0.0013 |
| CCGCUU | 1.96 ± 0.051 | 1.887 ± 0.0021 |
| CCGCUC | 2.005 ± 0.0034 | 1.963 ± 0.019 |
| CCGAAC | 1.9 ± 0.019 | 1.606 ± 0.0099 |
| CCGAAU | 1.9 ± 0.083 | 1.66 ± 0.028 |
| GCCGUC | 1.94 ± 0.096 | 1.91 ± 0.074 |
| GCCGUA | 1.965 ± 0.011 | 1.84 ± 0.061 |
| GCCGUG | 1.91 ± 0.025 | 1.48 ± 0.036 |
| ACCGAA | 1.897 ± 0.018 | 1.74 ± 0.045 |
| ACCGAG | 1.76 ± 0.057 | 1.301 ± 0.0053 |
| ACCGAC | 1.967 ± 0.0065 | 1.825 ± 0.017 |
| GCCCCG | 1.92 ± 0.05 | 1.52 ± 0.021 |

| Variant | normalized RNA/DNA level with ligand (log10) [1] | normalized RNA/DNA level without ligand (log10) [2] |
| --- | --- | --- |
| GCCCCA | 1.965 ± 0.0094 | 1.85 ± 0.05 |
| GCCCCU | 1.93 ± 0.029 | 1.933 ± 0.0028 |
| GCCCCC | 1.95 ± 0.033 | 1.83 ± 0.078 |
| UCGCUG | 1.98 ± 0.069 | 1.803 ± 0.0034 |
| UCGCUU | 1.984 ± 0.0024 | 1.7 ± 0.035 |
| UCGCUA | 1.96 ± 0.037 | 1.725 ± 0.0084 |
| UCGCUC | 1.98 ± 0.049 | 2.109 ± 0.015 |
| ACGAAC | 1.89 ± 0.036 | 1.58 ± 0.017 |
| UCGGCU | 1.913 ± 0.014 | 1.8 ± 0.063 |
| UCGGCA | 1.99 ± 0.056 | 1.7 ± 0.098 |
| UCGGCC | 2.04 ± 0.081 | 1.951 ± 0.006 |
| UCCGAC | 1.95 ± 0.022 | 1.796 ± 0.016 |
| UCCGAA | 1.94 ± 0.0047 | 1.631 ± 0.0036 |
| UCCGAU | 1.965 ± 0.013 | 1.774 ± 0.0086 |
| CCCGAU | 1.97 ± 0.033 | 1.8 ± 0.029 |
| CCCGAA | 1.9 ± 0.085 | 1.76 ± 0.033 |
| CCCGAG | 1.89 ± 0.035 | 1.65 ± 0.022 |
| CCCGAC | 1.959 ± 0.0051 | 1.84 ± 0.033 |
| UCCUUU | 2.01 ± 0.04 | 1.94 ± 0.032 |
| UCCUUC | 1.93 ± 0.046 | 1.89 ± 0.062 |
| UCCUUG | 1.91 ± 0.034 | 1.64 ± 0.022 |
| UCCUUA | 1.956 ± 0.015 | 1.87 ± 0.069 |
| GCGCAA | 1.873 ± 0.014 | 1.52 ± 0.023 |
| GCGCAU | 1.89 ± 0.026 | 1.55 ± 0.044 |

| Variant | normalized RNA/DNA level with ligand (log10) [1] | normalized RNA/DNA level without ligand (log10) [2] |
| --- | --- | --- |
| ACGGCU | 1.88 ± 0.034 | 1.6 ± 0.016 |
| ACGGCC | 1.96 ± 0.02 | 1.88 ± 0.029 |
| ACGGCA | 1.902 ± 0.019 | 1.702 ± 0.008 |
| GCGGGC | 1.86 ± 0.046 | 1.58 ± 0.084 |
| UCGAUA | 1.91 ± 0.026 | 1.57 ± 0.032 |
| UCGAUG | 1.922 ± 0.011 | 1.62 ± 0.033 |
| UCGAUU | 1.912 ± 0.013 | 1.55 ± 0.12 |
| UCCCGC | 1.924 ± 0.018 | 1.51 ± 0.017 |
| UCCCGA | 1.956 ± 0.0054 | 1.8 ± 0.031 |
| UCCCGG | 1.95 ± 0.11 | 1.668 ± 0.0066 |
| CCGCCU | 1.94 ± 0.025 | 1.95 ± 0.051 |
| CCGCCC | 2.025 ± 0.013 | 1.99 ± 0.044 |
| CCGCCA | 1.97 ± 0.045 | 1.94 ± 0.053 |
| CCGCCG | 1.956 ± 0.016 | 1.66 ± 0.037 |
| ACCUGU | 1.9472 ± 0.00096 | 1.81 ± 0.033 |
| ACCUGC | 1.99 ± 0.051 | 1.912 ± 0.016 |
| GCCUAC | 1.954 ± 0.0075 | 1.757 ± 0.0057 |
| GCCUAU | 1.944 ± 0.013 | 1.852 ± 0.011 |
| UCGGUG | 1.9763 ± 0.0017 | 1.67 ± 0.028 |
| UCGGUC | 2.034 ± 0.0059 | 1.969 ± 0.012 |
